The text below walks through data of US20240002498A1 (TENEOBIO, published 2024).

In test [1] the target is human Folate Receptor Alpha (FOLR1) on cells (human) (UniProt P15328). The experiment in a line: saturation binding on IGROV-1 cells, bound against free antibody (Scatchard analysis per paragraph 239).
The target is the same in test [2]. As to the kind of experiment: cell-based or functional assay.
Test [3] concerns the target T1, cyno FOLR1 on CHO cells (cyno (Cynomolgus macaque), UniProt A0A2K5U044 25-234).
T1 construct: whole, on cells; also called cyFOLR1
The experiment in a line: flow cytometry, CHO cells stably expressing cyno FOLR1.

The target of test [4] is T2, human Folate Receptor Alpha (FOLR1) on cells (human, UniProt P15328 25-234).
T2 construct: whole, on cells; Endogenous on IGROV-1, OVCAR-3, SKOV-3, HT-29 cells; transfected on CHO cells; the cell is named under assay; also called FRα; FRa
As to the kind of experiment: cell binding, CHO cells stably expressing human FOLR1.

Test [5] deals with T3, mouse FOLR1 on CHO cells (mouse, UniProt P35846 25-232).
T3 construct: whole, on cells; also called msFOLR1
The experiment in a line: flow cytometry on CHO cells stably expressing mouse FOLR1, MFI fold over background. Here is the method:
IGROV-1 cells, OVCAR-3 cells, CHO cells stably expressing human FOLR1, CHO cells stably expressing cyno FOLR1, and CHO cells stably expressing mouse FOLR1 were incubated with increasing amounts of the indicated antibodies, and binding characteristics were analyzed. Data are presented in FIG. 1, panels A-E, as MFI fold over background.

The target of test [6] is T2, human Folate Receptor Alpha (FOLR1) on …. As to the kind of experiment: cell binding, OVCAR-3 cells.
Test [7] shares this target. As to the kind of experiment: cell binding, IGROV-1 cells.
For test [8] the target is unchanged. As to the kind of experiment: flow cytometry, CHO cells stably expressing human FOLR1. (Flow cytometry measures light scatter and fluorescence of single cells or particles in a stream.)
In test [9] the target is T1, cyno FOLR1 on CHO cells. As to the kind of experiment: cell binding, CHO cells stably expressing cyno FOLR1.
The target in a further test is recombinant human FOLR1 (human, UniProt P15328 25-234). As to the kind of experiment: BLI, Octet QK-384, recombinant human FOLR1. Here is the method:
As used herein, the “Kd” or “Kd value” refers to a dissociation constant determined by BioLayer Interferometry, using an Octet QK384 instrument (Fortebio Inc., Menlo Park, CA) in kinetics mode. For example, anti-mouse Fc sensors are loaded with mouse-Fc fused antigen and then dipped into antibody-containing wells to measure concentration dependent association rates (kon). Antibody dissociation rates (koff) are measured in the final step, where the sensors are dipped into wells containing buffer only. The Kd is the ratio of koff/kon. (For further details see, Concepcion, J, et al., Comb Chem High Throughput Screen, 12 (8), 791-800, 2009).
Table 17 summarizes affinity and epitope bin information for anti-FOLR1 heavy chain antibodies (HCAbs). Column 1 indicates the clone ID of the HCAb. Column 2 indicates the affinity of the HCAb to recombinant human FOLR1 as measured by Bio-layer interferometry (BLI) using an Octet QK-384. Column 3 indicates the epitope bin of HCAb as determined by a competition BLI binding experiment using an Octet QK-384.
(BLI is a label-free optical method that tracks binding on a fibre tip over time.)

The target of test [10] is T4, FOLR3 (folate receptor gamma) (UniProt P41439 23-245, limits assumed).
T4 construct: also called FRγ
The experiment in a line: BLI (Octet).

For test [11], the target named is T3, mouse FOLR1 on CHO cells. As to the kind of experiment: cell binding, CHO cells stably expressing mouse FOLR1.

A word on the EC50 (read off the curve): it is the concentration at which the effect is half-maximal. High values mean a less potent agent, low ones a more potent agent. Usually EC50 stands for the concentration at which the effect is half-maximal. Lower therefore signals greater potency. One may read the Kd as the equilibrium constant for the complex coming apart.

Changes are numbered by the printed parent chain.

T3 sequence (P35846 25-232): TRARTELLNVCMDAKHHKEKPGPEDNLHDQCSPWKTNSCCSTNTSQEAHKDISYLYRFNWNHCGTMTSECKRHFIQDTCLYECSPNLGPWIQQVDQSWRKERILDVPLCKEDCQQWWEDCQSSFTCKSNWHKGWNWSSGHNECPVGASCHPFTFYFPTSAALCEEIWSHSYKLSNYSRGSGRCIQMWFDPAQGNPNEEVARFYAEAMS
T1 sequence (A0A2K5U044 entry or part of it): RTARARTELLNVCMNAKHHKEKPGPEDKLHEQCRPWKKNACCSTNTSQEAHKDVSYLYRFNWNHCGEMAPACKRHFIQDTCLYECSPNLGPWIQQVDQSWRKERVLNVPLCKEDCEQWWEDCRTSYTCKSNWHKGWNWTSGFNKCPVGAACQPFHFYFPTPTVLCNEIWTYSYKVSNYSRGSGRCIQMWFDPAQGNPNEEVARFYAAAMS
Sequence of recombinant human FOLR1 (P15328 25-234 limits assumed): as the sequence (A0A2K5U044 entry or part of it) above, with T2I, R4W, K37R, P146A, Y171H counted along it
T2 sequence (P15328 25-234): as the sequence (A0A2K5U044 entry or part of it) above, with T2I, R4W, K37R, P146A, Y171H counted along it
Sequence of human Folate Receptor Alpha (FOLR1) on cells (human) (P15328 25-234): as the sequence (A0A2K5U044 entry or part of it) above, with T2I, R4W, K37R, P146A, Y171H counted along it
T4 sequence (P41439 23-245 limits assumed): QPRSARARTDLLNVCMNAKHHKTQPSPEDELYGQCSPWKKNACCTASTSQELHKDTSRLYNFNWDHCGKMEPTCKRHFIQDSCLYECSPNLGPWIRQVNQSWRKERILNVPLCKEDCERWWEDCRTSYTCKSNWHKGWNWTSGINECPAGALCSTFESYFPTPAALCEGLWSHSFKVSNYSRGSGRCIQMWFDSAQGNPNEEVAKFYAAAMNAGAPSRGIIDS

In test [1], “TNB-928B, fully human bispecific antibody that binds to FOLR1 (FRα) and CD3” displayed a concentration giving a half-maximal response (EC50 (read off the curve)) of 6 nM. Moreover, in test [2], the EC50 of ex vivo tumor cell lysis (dissociated ovarian tumor sample) was 0.0452 nM and the maximum tumor cell lysis (IGROV-1 cells with human pan T-cells, 48 hours) was found to be 75%.

B1: anti-FOLR1 heavy chain antibody (HCAb, UniAb) clone ID 358589 (antibody, V domains shown)
VH: EVQLVESGGGLVQPGGSLRLSCAASGFSFSSYSMKWVRQAPGKGLEWVSYISSSSDTIEYADSVKGRFTISRDNAKNSLYLMNSLRDEDTAVYYCASVGLDFDYRGQGTLVTVSS
notes: Heavy chain-only antibody (no light chain), F18 family
On to B1, for which the “fold over background MFI” value in the test with cyno FOLR1 on CHO cells [3] was 996 fold over background; in [8] it was 1580 fold over background. For the same molecule, the EC50 in test [4] is 3.3 nM; in test [6], 0.9 nM; in test [7], 3.7 nM; with cyno FOLR1 on CHO cells [9], 1.9 nM. In the test with mouse FOLR1 on CHO cells [5], the binding result is “no binding (tested: 100 nM (log[nM] 2))”. In addition, the Kd with recombinant human FOLR1 was found to be 22.3 nM.

B2: anti-FOLR1 heavy chain antibody (HCAb, UniAb) clone ID 358598 (antibody, V domains shown)
VH: EVQLVESGGGLVQPGGSLRLSCAASGFSFSSYSMNWVRQAPGKGLEWVSYITSSSDTIEYADSVKGRFTISRDNAKNSLYLQMNSLRDEDTAVYYCASVGLDFDYRGQGTLVTVSS
notes: as for B1
With B2, the binding result in test [10] is “no binding”; with mouse FOLR1 on CHO cells [5], “no binding (tested: 100 nM (log[nM] 2))”. Moreover, the results for the “fold over background MFI” value (in the test with cyno FOLR1 on CHO cells [3]; in test [8]) were 1010 fold over background and 1890 fold over background, respectively. Further, the EC50 in test [4] amounted to 1.9 nM; in test [6], 0.6 nM; in [7], 2.6 nM; with cyno FOLR1 on CHO cells [9], 2.4 nM. Besides, the dissociation constant (Kd) in the test with recombinant human FOLR1 was 22.7 nM.

B3: anti-FOLR1 heavy chain antibody (HCAb, UniAb) clone ID 358614 (antibody, V domains shown)
VH: B2 VH with N35K, T52S, S53R
notes: as for B1
On to B3, for which the binding result in test [10] is “no binding”; in the test with mouse FOLR1 on CHO cells [5] it was “no binding (tested: 100 nM (log[nM] 2))”. In addition, the figures for the “fold over background MFI” value (with cyno FOLR1 on CHO cells [3]; in test [8]) were 735 fold over background and 886 fold over background, respectively. Further, the concentration giving a half-maximal response (EC50) was determined as 1.9 nM in [4], 0.7 nM in test [6], 2.1 nM in test [7] and 2.7 nM with cyno FOLR1 on CHO cells [9]. Besides, the equilibrium dissociation constant (Kd) with recombinant human FOLR1 was 26.8 nM.

B4: anti-FOLR1 heavy chain antibody (HCAb, UniAb) clone ID 358454 (antibody, V domains shown)
VH: EVQLVESGGGLVQPGGSLRLSCAASGFTFSSYSMNWVRQAPGKGLEWVSSISSGSSYIYYADSVKGRFTISRDNAKNSLYLQMNSLRAEDTAVYFCARDVTSGIAAAGSAFNIRGQGTLVTVSS
notes: Heavy chain-only antibody (no light chain), F14 family
As for B4, the binding result in test [10] is “no binding”. The figures for the “fold over background MFI” value (with cyno FOLR1 on CHO cells [3]; in test [8]) were 1520 fold over background and 1230 fold over background, respectively. The half-maximal effective concentration (EC50) in the test with mouse FOLR1 on CHO cells [11] was 3.2 nM; in test [4], 4.2 nM; in test [6] it was 1.5 nM; in test [7], 3.3 nM; with cyno FOLR1 on CHO cells [9], 3.4 nM. Moreover, in the test with recombinant human FOLR1, the dissociation constant (Kd) is 6.78 nM.

B5: anti-FOLR1 heavy chain antibody (HCAb, UniAb) clone ID 358474 (antibody, V domains shown)
VH: B4 VH with Q13K, V93I, F95Y
notes: as for B4
On to B5, for which the binding result in test [10] is given as “no binding”. In addition, the “fold over background MFI” value turned out to be 2350 fold over background with cyno FOLR1 on CHO cells [3] and 2240 fold over background in [8]. In addition, the EC50 in the test with mouse FOLR1 on CHO cells [11] came to 2.6 nM; in test [4], 4 nM; in test [6] it was 1.2 nM; in test [7] it was 4 nM; with cyno FOLR1 on CHO cells [9] it was 4.3 nM. Further, the dissociation constant Kd with recombinant human FOLR1 turned out to be 7.62 nM.
